± gives the standard deviation.
Test: protein stability index of a GFP-peptide fusion (GPS, HEK-293T) (PSI 1-6); higher = more stable
[1] = treatment: DMSO, c terminus: a fixed tail appended
[2] = treatment: MLN4924 1 uM, 8 h, c terminus: a fixed tail appended
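Also: 24-mer peptide tiles fused after GFP, lentivirally expressed, FACS-sorted into six equal bins by GFP/DsRed ratio, decoded by Illumina sequencing, PSI is the read-weighted mean bin number.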

Row | Sequence | protein stability index [1] | protein stability index [2] | protein stability index (treatment: DMSO, c terminus: native) | protein stability index (treatment: MLN4924 1 uM, 8 h, c terminus: native)
1 | CKCSEGFVLAEDGRRCKKCTEGPI [MATN2] | 4.99 ± 0.2 | 5.41 ± 0.081 | – | –
2 | CLHHVHYLATEYLETHFRDVSSTE [GAN] | 2.37 ± 0.23 | 2.52 ± 0.54 | – | –
3 | CMPLVCTAIFYTLMTCEMLNRRNG [EDNRA] | 3.29 ± 0.24 | 3.58 ± 0.93 | – | –
4 | CNQCGKCFIQSSHLIRHQITHTRE [ZNF8] | 4.28 ± 0.19 | 4.47 ± 0.21 | – | –
5 | CPLKNPTFLDYVRPRSWTCRYVF [SOAT1] | – | – | 3.22 ± 0.47 | 3.06 ± 0.42
6 | CQHLSSSAEELRKARSNSTLSKSE [KCNA3] | 5.01 ± 0.33 | 4.75 ± 0.26 | – | –
7 | CQSGYFSSMFSGSWKESSMNIIEL [GMCL1] | 2.53 ± 0.37 | 2.34 ± 0.77 | – | –
8 | CRERWHNHLNPEVKKSCWTEEEDR [MYBL2] | 4.2 ± 0.4 | 4.34 ± 0.25 | – | –
9 | CRLRCHPPRGPLAKHRLVPPAQGR [TRIM9] | 2.84 ± 0.14 | 3.47 ± 0.56 | – | –
10 | CSRTWTNRLCHQEMGSKKTVTQED [SPAG8] | 3.7 ± 0.13 | 3.74 ± 0.14 | – | –
11 | CSSSGKDGNLCLHVPNPPSGISFP [HESX1] | 3.15 ± 0.18 | 3.25 ± 0.33 | – | –
12 | CSWKGATKQRIQDQKVPYIFRDNQ [CHIT1] | 2.87 ± 0.24 | 3.14 ± 0.62 | – | –
13 | CTHCSKSFRQRAGLIMHQVTHFRG [ZNF449] | 2.46 ± 0.53 | 3.02 ± 0.52 | – | –
14 | DADILGLKKSNSAPSKKAAKDPGK [FBF1] | 5.18 ± 0.18 | 5.22 ± 0.42 | – | –
15 | DARYKLHHHLHKTLREITDQEHNV [TEKT4] | 3.77 ± 0.29 | 4.02 ± 0.14 | – | –
16 | DAVQTSLMDEGASSEKKRQSSADG [RBBP5] | 5.49 ± 0.26 | 5.48 ± 0.19 | – | –
17 | DDDFSIHAAHVVCRELGYVEAKSW [LOXL2] | 2.72 ± 0.24 | 2.83 ± 0.33 | – | –
18 | DEELHLLIISCRKLFYFKIWAFLD [FBXO39] | 2.75 ± 0.52 | 2.47 ± 0.69 | – | –
19 | DENSSDGRYVKENCKPLKSYMLQD [CLK3] | 4.57 ± 0.49 | 4.36 ± 0.11 | – | –
20 | DETFLATSFLQHPWDESGSGCLPP [FOXJ1] | 4.15 ± 0.16 | 4.11 ± 0.079 | – | –
21 | DFCEPSFVTGNCLEISPDCSQYDR [PCMTD2] | 4.38 ± 0.32 | 4.4 ± 0.22 | – | –
22 | DGSYALNGEYTLMPSPTDVVLPGA [ADAMTS4] | 4.4 ± 0.2 | 3.87 ± 0.36 | – | –
23 | DHEDFTGSSSLGFTSSPSPFSSSS [FCHO1] | 4.45 ± 0.15 | 4.37 ± 0.14 | – | –

Row | Sequence | protein stability index [1] | protein stability index [2] | protein stability index (treatment: DMSO, c terminus: native) | protein stability index (treatment: MLN4924 1 uM, 8 h, c terminus: native)
24 | DHRGRMVKHQCCPGCGYFCTAGNF [EHMT1] | 2.79 ± 0.14 | 3.14 ± 0.17 | – | –
25 | DIASRYPTLWTEQVKSRQNKTNKN [SMOC2] | 3.98 ± 0.18 | 4.36 ± 0.33 | – | –
26 | DIEQFFNIGDSSSGLIQTVFISSY [SPNS1] | 2.68 ± 0.39 | 2.66 ± 0.8 | – | –
27 | DIFALALTVVCAAGAEPLPRNGDQ [WEE1] | 2.77 ± 0.22 | 2.54 ± 0.61 | – | –
28 | DILMEEEEGVVGGLSGGALSPLRA [TFE3] | 4.45 ± 0.42 | 4.11 ± 0.23 | – | –
29 | DIVFSKIKGKSCRTITFEQFQEAL [TPPP] | 2.46 ± 0.29 | 2.31 ± 0.13 | – | –
30 | DLFDLCDRTFTLKTVLMIAIQLLS [CSNK1G1] | 2.6 ± 0.43 | 2.33 ± 0.42 | – | –
31 | DLKLGNFFINEAMELKVGDFGLAA [PLK2] | 2.14 ± 0.078 | 2.63 ± 0.17 | – | –
32 | DLLPVWLLEDMRASEAFHWDERGR [ANKRD9] | 2.52 ± 0.5 | 2.87 ± 0.45 | – | –
33 | DLQITDQVALLRLTWSELFVLNAA [NR2F2] | 2.92 ± 0.58 | 2.88 ± 0.65 | – | –
34 | DLSGRRLRDVNHEKAMAEWVKQQA [SDE2] | 4.24 ± 0.2 | 4.13 ± 0.37 | – | –
35 | DNPFGIYQKILAGKIDFPRHLDFH [PRKX] | 2.1 ± 0.33 | 2.23 ± 0.28 | – | –
36 | DPEVFKEMMRFIYTGRAPNLDKMA [SPOPL] | 2.25 ± 0.32 | 2.41 ± 0.26 | – | –
37 | DPGQQFTWEHSNLEVNKPKNRYAN [PTPRD] | 4.99 ± 0.39 | 4.98 ± 0.26 | – | –
38 | DPGQVGLINSNVSMVDLTSVTLED [FAN1] | 5.05 ± 0.092 | 4.79 ± 0.2 | – | –
39 | DPSGVSGATVGRKSRRSRSESETS [C18orf25] | 5.69 ± 0.17 | 5.42 ± 0.49 | – | –
40 | DQLFMQEKARQLLGRLKPSHTSRT [MYBL2] | 3.29 ± 0.27 | 3.76 ± 0.43 | – | –
41 | DQLLLNYAKKESDLNGAQIKLREY [LMNB1] | 3.617 ± 0.031 | 3.71 ± 0.1 | – | –
42 | DRECKLPPPSAPASEYCPGKLSWG [WDR88] | 3.79 ± 0.13 | 3.96 ± 0.36 | – | –
43 | DREGYTSFWNDCISSGLRGCMLIE [GOLPH3] | 2.08 ± 0.28 | 2.31 ± 0.19 | – | –
44 | DRFAQDSEMKKCSDYESIEVPDSY [PPEF2] | 5.15 ± 0.23 | 5.15 ± 0.34 | – | –
45 | DRIRFTVNRRISIVGFGLYGSIHG [BTBD1] | 2.25 ± 0.61 | 2.32 ± 1.2 | – | –
46 | DSDDDDDVAVTVDRDRFMDEFFEQ [STX1A] | 5.36 ± 0.49 | 5.43 ± 0.32 | – | –

Row | Sequence | protein stability index [1] | protein stability index [2] | protein stability index (treatment: DMSO, c terminus: native) | protein stability index (treatment: MLN4924 1 uM, 8 h, c terminus: native)
47 | DSDKLSGLWSRISHLVLPVQPVSS [TOR1AIP2] | 2.3 ± 0.24 | 2.32 ± 0.21 | – | –
48 | DSGVGKSNLLSRFTRNEFNLESKS [RAB11A] | 4.03 ± 0.11 | 4.08 ± 0.21 | – | –
49 | DSQQPGKRRKDSEEEAASPEGKRV [FANCE] | 5.66 ± 0.13 | 5.5 ± 0.25 | – | –
50 | DSYESYGNSRSAPPTRGPPPSYGG [RBMX] | 4.27 ± 0.35 | 4.33 ± 0.4 | – | –
51 | DTALLNLLPMLDALRFTADVRSVL [CTDNEP1] | 2.78 ± 0.48 | 2.58 ± 0.42 | – | –
52 | DVAVHMPCLGHTFNAGIQQAFQLP [ZBED1] | 2.53 ± 0.36 | 2.8 ± 0.36 | – | –
53 | DVNDNSPELTITSLFSPVTEDSPL [PCDHGA10] | 4.53 ± 0.21 | 4.65 ± 0.36 | – | –
54 | DVSLCRWHPKPYCQALPYGPGYWM [FBXO34] | 2.33 ± 0.35 | 2.15 ± 0.32 | – | –
55 | DWVSDWSSRPENIPPKEFHFRHPK [BNIP3L] | 3.79 ± 0.27 | 3.68 ± 0.093 | – | –
56 | EAAGGESALAPSVFKQAKDKVSDG [MAP2] | 5.46 ± 0.26 | 5.43 ± 0.32 | – | –
57 | EAEKLERQLALPATEQAATQESTF [NOP53] | 5.43 ± 0.32 | 5.53 ± 0.1 | – | –
58 | EAFLAQFSQLEDKFPGQSSFLWQR [TOR1AIP2] | 2.39 ± 0.56 | 2.5 ± 0.53 | – | –
59 | EAKEGDLHRIEIPFKFHMLHSGLV [CARM1] | 2.07 ± 0.48 | 2.49 ± 0.23 | – | –
60 | EALGHMFMYFLRGSLPWQGLKADT [CSNK1G1] | 3.63 ± 0.22 | 3.19 ± 0.4 | – | –
61 | EARGLRLSDLEDLEEEEEEEEEAE [IRX6] | 5.55 ± 0.41 | 5.5 ± 0.39 | – | –
62 | EATNGREGLLRFSSWPFSIQDVVQ [AUP1] | 2.93 ± 0.21 | 3.09 ± 0.37 | – | –
63 | ECGKAFSQNSSLVQHERIHTGDKP [ZNF8] | 4.49 ± 0.33 | 4.48 ± 0.15 | – | –
64 | EDLLLPGACPGADEAGGGAEGDSW [WEE1] | 5.53 ± 0.12 | 5.58 ± 0.22 | – | –
65 | EDTHVQIGQVHEEFKQNIENVSVE [FCHO1] | 5.48 ± 0.27 | 5.49 ± 0.21 | – | –
66 | EDVARPTQRLWDFTQSGPIVSRAT [GALNT9] | 3.99 ± 0.056 | 3.87 ± 0.33 | – | –
67 | EDVEDHYEMGEELGSGQFAIVRKC [DAPK3] | 5.06 ± 0.099 | 5.3 ± 0.35 | – | –
68 | EDWDSALFAELGYFTDTDELQLEA [ATF6] | 4.3 ± 0.21 | 4.65 ± 0.23 | – | –
69 | EDYPAALPNHKPKGTFKDYVRDRA [ETS1] | 4.57 ± 0.1 | 4.62 ± 0.32 | – | –

Row | Sequence | protein stability index [1] | protein stability index [2] | protein stability index (treatment: DMSO, c terminus: native) | protein stability index (treatment: MLN4924 1 uM, 8 h, c terminus: native)
70 | EEADFLSAETGSPRLTMHYPCLEK [IRX6] | 4.49 ± 0.19 | 4.56 ± 0.065 | – | –
71 | EEAPAVTAGLKIFEPPAPGEGNSS [TNFSF13B] | 5.33 ± 0.23 | 5.3 ± 0.14 | – | –
72 | EEDDGRGRGLLRWDSFSAWLHCVC [DENND6A] | 3.06 ± 0.25 | 3.04 ± 0.29 | – | –
73 | EEDLVLTCEDDEDEELGGSSRVPV [ZBTB22] | 5.67 ± 0.24 | 5.6 ± 0.21 | – | –
74 | EEEEEEEEAEAGEEAVPEEEGPTV [CHGA] | 5.34 ± 0.25 | 5.4 ± 0.25 | – | –
75 | EEELIRIFQEQQKKWQQYRSVRRE [FAM9B] | 3.92 ± 0.33 | 4.07 ± 0.49 | – | –
76 | EEENDYRNLDASPTYKGLLMSLQN [CEP70] | 3.67 ± 0.18 | 3.63 ± 0.34 | – | –
77 | EEENPGGCEDEYLVNPTCQVLVKD [ZER1] | 5.54 ± 0.22 | 5.54 ± 0.22 | – | –
78 | EEETQFYISETVLAIDAIHQLGFI [STK38L] | 2.48 ± 0.51 | 2.58 ± 0.2 | – | –
79 | EEFNVLEMEVMRRQLYAVNRRLRA [FATE1] | 2.92 ± 0.21 | 3.1 ± 0.5 | – | –
80 | EEGTSDSNTGSESNSATVEEPPTD [SMARCE1] | 5.36 ± 0.44 | 5.67 ± 0.2 | – | –
81 | EEPVFEAVINWVKHAKKEREESLP [KLHL12] | 4.16 ± 0.48 | 4.17 ± 0.28 | – | –
82 | EERATRLAELQEQLKAVHEQLAAL [BRD3] | 4.59 ± 0.22 | 4.31 ± 0.062 | – | –
83 | EERNRFTETREEDVTDEHGEREPF [FAM9B] | 5.62 ± 0.17 | 5.58 ± 0.12 | – | –
84 | EESRDPTLYANNVQRVMAQALGIP [LPCAT4] | 3.71 ± 0.39 | 3.89 ± 0.33 | – | –
85 | EESRISVPVHSFASLNIKTTVPEV [PRPH] | 4.05 ± 0.35 | 3.98 ± 0.39 | – | –
86 | EETHLEETTESQQNGEEGTSTPED [SMARCE1] | 5.48 ± 0.29 | 5.63 ± 0.23 | – | –
87 | EFCEPAFVVGNCLQIASDSHQYDR [PCMTD1] | 3.5 ± 0.49 | 3.51 ± 0.31 | – | –
88 | EGREAPALVAAGGAPEDDEEDDGR [DENND6A] | 5.68 ± 0.29 | 5.72 ± 0.3 | – | –
89 | EGRPGAATFHVGGGPAQNAPHQQP [TFE3] | 4.79 ± 0.17 | 4.8 ± 0.24 | – | –
